Source: paper PMC9482650, “Quantitative fragmentomics allow affinity mapping of interactomes” (Nature Communications, 2022)
One block for each binder: values may come before it.

Experiments:
Test in all cases: holdup assay
Parameters in all cases: key: below the threshold = too weak to quantify, mostly under pKd 3.1 to 4
ARHGEF12, Q9NZN5-2 = conditions: plain residues with an end cap or a label only (N-terminal biotin on a linker: ttds)
DFNB31_1, Q9P202 = biological target: T1, DFNB31_1, Q9P202
T1 sequence (Q9P202 135-233, limits assumed, looked up): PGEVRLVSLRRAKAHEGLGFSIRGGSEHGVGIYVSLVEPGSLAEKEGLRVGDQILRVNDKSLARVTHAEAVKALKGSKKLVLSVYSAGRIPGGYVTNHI

DLG1_2, Q12959 = conditions: plain residues with an end cap or a label only (N-terminal biotin on a linker: ttds)
DLG4_1, P78352 = biological target: DLG4_1, P78352
GRIP1_3, Q9Y3R0 = biological target: T2, GRIP1_3, Q9Y3R0
T2 sequence (Q9Y3R0 247-346, limits assumed, looked up): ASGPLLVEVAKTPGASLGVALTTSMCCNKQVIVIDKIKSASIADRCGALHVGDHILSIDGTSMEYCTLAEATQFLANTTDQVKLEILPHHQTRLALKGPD

GRIP2_4, Q9C0E4 = biological target: GRIP2_4, Q9C0E4
HTRA4, P83105 = biological target: T3, HTRA4, P83105
T3 sequence (P83105 378-476, limits assumed, looked up): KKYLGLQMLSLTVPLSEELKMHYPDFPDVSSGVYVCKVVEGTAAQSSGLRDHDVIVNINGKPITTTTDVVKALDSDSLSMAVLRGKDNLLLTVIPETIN

IL16_1, Q14005 = conditions: plain residues with an end cap or a label only (N-terminal biotin on a linker: ttds)
Inadl_2, Q8NI35 = biological target: Inadl_2, Q8NI35
Inadl_5, Q8NI35 = biological target: Inadl_5, Q8NI35
LAP2, Q96RT1 = biological target: LAP2, Q96RT1
LIN7A, O14910 = biological target: T4, LIN7A, O14910
T4 sequence (O14910 103-200, limits assumed, looked up): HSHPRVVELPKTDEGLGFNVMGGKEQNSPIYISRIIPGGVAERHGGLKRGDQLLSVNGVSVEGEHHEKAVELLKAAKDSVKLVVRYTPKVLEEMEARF

LRRC7, Q96NW7 = biological target: T5, LRRC7, Q96NW7
T5 sequence (Q96NW7 1440-1537, limits assumed, looked up): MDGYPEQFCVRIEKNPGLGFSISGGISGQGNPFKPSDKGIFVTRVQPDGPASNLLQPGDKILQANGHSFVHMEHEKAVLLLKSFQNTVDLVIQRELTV

MAGI1_2, Q96QZ7 = conditions: plain residues with an end cap or a label only (N-terminal biotin on a linker: ttds)
MAST2, Q6P0Q8 = biological target: MAST2, Q6P0Q8
MPP7, Q5T2T1 = biological target: T6, MPP7, Q5T2T1
T6 sequence (Q5T2T1 134-230, limits assumed, looked up): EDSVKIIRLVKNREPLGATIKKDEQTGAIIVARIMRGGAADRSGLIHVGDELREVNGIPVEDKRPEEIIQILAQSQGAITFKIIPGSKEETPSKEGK

NHERF3_1, Q5T2W1 = biological target: T7, NHERF3_1, Q5T2W1
T7 sequence (Q5T2W1 4-100, limits assumed, looked up): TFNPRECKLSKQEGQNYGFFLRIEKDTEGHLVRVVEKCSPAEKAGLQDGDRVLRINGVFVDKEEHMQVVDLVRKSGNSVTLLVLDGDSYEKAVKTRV

NHERF3_4, Q5T2W1 = biological target: T8, NHERF3_4, Q5T2W1
T8 sequence (Q5T2W1 373-468, limits assumed, looked up): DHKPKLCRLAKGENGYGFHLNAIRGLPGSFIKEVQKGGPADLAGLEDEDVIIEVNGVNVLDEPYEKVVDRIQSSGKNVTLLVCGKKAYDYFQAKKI

PARD3_3, Q8TEW0 = biological target: PARD3_3, Q8TEW0
PCLO, Q9Y6V0 = biological target: T9, PCLO, Q9Y6V0
T9 sequence (Q9Y6V0 4491-4600, limits assumed, looked up): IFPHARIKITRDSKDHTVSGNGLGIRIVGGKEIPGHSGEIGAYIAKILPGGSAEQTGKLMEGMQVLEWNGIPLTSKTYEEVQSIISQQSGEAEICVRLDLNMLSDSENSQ

PDZRN3_1, Q9UPQ7 = biological target: T10, PDZRN3_1, Q9UPQ7
T10 sequence (Q9UPQ7 244-349, limits assumed, looked up): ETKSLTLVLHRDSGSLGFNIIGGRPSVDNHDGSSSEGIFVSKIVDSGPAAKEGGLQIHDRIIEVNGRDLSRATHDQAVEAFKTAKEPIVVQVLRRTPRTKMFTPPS

PICK1, Q9NRD5 = biological target: PICK1, Q9NRD5
RADIL, Q96JH8 = biological target: T11, RADIL, Q96JH8
T11 sequence (Q96JH8 971-1071, limits assumed, looked up): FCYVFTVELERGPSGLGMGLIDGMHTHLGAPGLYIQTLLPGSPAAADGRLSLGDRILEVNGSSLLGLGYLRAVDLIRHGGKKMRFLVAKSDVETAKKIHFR

RHPN1, Q8TCX5 = biological target: T12, RHPN1, Q8TCX5
T12 sequence (Q8TCX5 508-602, limits assumed, looked up): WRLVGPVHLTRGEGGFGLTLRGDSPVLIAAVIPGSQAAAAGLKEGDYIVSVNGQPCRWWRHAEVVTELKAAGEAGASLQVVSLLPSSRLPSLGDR

[1] = plain residues with an end cap or a label only (N-terminal biotin on a linker: ttds)
[2] = plain residues with an end cap or a label only (N-terminal biotin on a linker: ahx)

Sequence of MAST2, Q6P0Q8 (Q6P0Q8 1099-1202): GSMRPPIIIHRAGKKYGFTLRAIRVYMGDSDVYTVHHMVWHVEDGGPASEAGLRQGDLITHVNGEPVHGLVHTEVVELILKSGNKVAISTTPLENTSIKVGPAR
Sequence of GRIP2_4, Q9C0E4 (Q9C0E4 446-548): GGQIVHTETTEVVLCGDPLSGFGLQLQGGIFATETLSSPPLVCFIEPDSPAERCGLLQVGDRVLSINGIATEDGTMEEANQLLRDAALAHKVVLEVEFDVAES
Sequence of PARD3_3, Q8TEW0 (Q8TEW0 582-685): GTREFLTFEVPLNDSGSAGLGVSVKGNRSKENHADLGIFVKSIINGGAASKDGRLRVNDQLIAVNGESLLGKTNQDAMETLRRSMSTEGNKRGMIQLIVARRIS
Sequence of PICK1, Q9NRD5 (Q9NRD5 17-115): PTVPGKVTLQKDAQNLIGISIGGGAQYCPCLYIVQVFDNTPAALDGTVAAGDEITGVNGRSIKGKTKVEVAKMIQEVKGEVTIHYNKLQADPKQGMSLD
Sequence of LAP2, Q96RT1 (Q96RT1 other isoform, or with tags, fused parts or gaps): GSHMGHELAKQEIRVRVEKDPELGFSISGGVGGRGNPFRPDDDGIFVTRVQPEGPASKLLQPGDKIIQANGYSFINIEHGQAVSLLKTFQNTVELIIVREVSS
Sequence of DLG4_1, P78352 (P78352 62-152): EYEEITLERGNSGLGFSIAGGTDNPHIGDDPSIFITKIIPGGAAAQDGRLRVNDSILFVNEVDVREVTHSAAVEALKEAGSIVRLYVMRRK
Sequence of Inadl_5, Q8NI35 (Q8NI35 673-780): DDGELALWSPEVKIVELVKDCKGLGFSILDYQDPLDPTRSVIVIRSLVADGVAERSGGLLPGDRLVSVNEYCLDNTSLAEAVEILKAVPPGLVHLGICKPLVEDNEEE
Sequence of Inadl_2, Q8NI35 (Q8NI35 238-335): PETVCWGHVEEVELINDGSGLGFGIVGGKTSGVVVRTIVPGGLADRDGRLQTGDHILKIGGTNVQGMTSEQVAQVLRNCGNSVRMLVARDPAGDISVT
Sequence of MAGI1_2, Q96QZ7 (Q96QZ7 456-580): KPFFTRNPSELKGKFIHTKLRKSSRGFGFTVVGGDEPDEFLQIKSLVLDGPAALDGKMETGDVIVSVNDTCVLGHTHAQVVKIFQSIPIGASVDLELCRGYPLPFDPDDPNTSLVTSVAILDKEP
Sequence of ARHGEF12, Q9NZN5-2 (Q9NZN5 other isoform, or with tags, fused parts or gaps): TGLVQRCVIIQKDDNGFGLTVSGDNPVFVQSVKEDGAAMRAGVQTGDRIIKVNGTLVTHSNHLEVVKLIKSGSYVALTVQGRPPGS
Sequence of DLG1_2, Q12959 (Q12959 314-412): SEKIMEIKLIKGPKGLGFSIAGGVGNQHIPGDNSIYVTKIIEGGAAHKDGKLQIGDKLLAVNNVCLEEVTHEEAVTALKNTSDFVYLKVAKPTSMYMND
Sequence of IL16_1, Q14005 (Q14005 210-306): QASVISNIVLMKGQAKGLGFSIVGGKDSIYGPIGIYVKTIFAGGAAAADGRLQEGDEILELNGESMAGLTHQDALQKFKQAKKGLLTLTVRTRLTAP

pKd (ARHGEF12, Q9NZN5-2): 4.32 | pKd (DFNB31_1, Q9P202; [1]): 3.84 | pKd (DLG1_2, Q12959): 4.79 | pKd (DLG4_1, P78352; [1]): 3.84 | pKd (GRIP1_3, Q9Y3R0; [1]): 3.66 | pKd (GRIP2_4, Q9C0E4; [1]): below the threshold | pKd (HTRA4, P83105; [1]): below the threshold | pKd (IL16_1, Q14005): 3.5 | pKd (Inadl_2, Q8NI35; [1]): below the threshold | pKd (Inadl_5, Q8NI35; [1]): below the threshold | pKd (LAP2, Q96RT1; [1]): 3.5 | pKd (LIN7A, O14910; [1]): below the threshold | pKd (LRRC7, Q96NW7; [1]): 3.68 | pKd (MAGI1_2, Q96QZ7): below the threshold | pKd (MAST2, Q6P0Q8; [1]): 5.52 | pKd (MPP7, Q5T2T1; [1]): below the threshold | pKd (NHERF3_1, Q5T2W1; [1]): 4.43 | pKd (NHERF3_4, Q5T2W1; [1]): below the threshold | pKd (PARD3_3, Q8TEW0; [1]): 3.48 | pKd (PCLO, Q9Y6V0; [1]): below the threshold | pKd (PDZRN3_1, Q9UPQ7; [1]): 4.38 | pKd (PICK1, Q9NRD5; [1]): below the threshold | pKd (RADIL, Q96JH8; [1]): below the threshold | pKd (RHPN1, Q8TCX5; [1]): 4.46
B1: KCNA5, P22460 (peptide)
chain: CLDTSRETDL

pKd (ARHGEF12, Q9NZN5-2): 4.2 | pKd (DFNB31_1, Q9P202; [1]): 3.86 | pKd (DLG1_2, Q12959): 3.97 | pKd (DLG4_1, P78352; [1]): 3.82 | pKd (GRIP1_3, Q9Y3R0; [1]): below the threshold | pKd (GRIP2_4, Q9C0E4; [1]): below the threshold | pKd (HTRA4, P83105; [1]): 3.62 | pKd (Inadl_2, Q8NI35; [1]): below the threshold | pKd (Inadl_5, Q8NI35; [1]): below the threshold | pKd (LAP2, Q96RT1; [1]): 3.82 | pKd (LIN7A, O14910; [1]): below the threshold | pKd (LRRC7, Q96NW7; [1]): below the threshold | pKd (MAGI1_2, Q96QZ7): below the threshold | pKd (MAST2, Q6P0Q8; [1]): 5.24 | pKd (MPP7, Q5T2T1; [1]): below the threshold | pKd (NHERF3_1, Q5T2W1; [1]): 4.03 | pKd (NHERF3_4, Q5T2W1; [1]): 3.53 | pKd (PARD3_3, Q8TEW0; [1]): 3.55 | pKd (PCLO, Q9Y6V0; [1]): below the threshold | pKd (PDZRN3_1, Q9UPQ7; [1]): 4.23 | pKd (PICK1, Q9NRD5; [1]): 3.77 | pKd (RADIL, Q96JH8; [1]): 3.91 | pKd (RHPN1, Q8TCX5; [1]): 4.36
B2: PTEN, P60484 (peptide)
chain: DEDQHTQITKV

pKd (DFNB31_1, Q9P202; [2]): below the threshold | pKd (DLG4_1, P78352; [2]): below the threshold | pKd (GRIP1_3, Q9Y3R0; [2]): below the threshold | pKd (GRIP2_4, Q9C0E4; [2]): below the threshold | pKd (HTRA4, P83105; [2]): below the threshold | pKd (Inadl_2, Q8NI35; [2]): below the threshold | pKd (Inadl_5, Q8NI35; [2]): below the threshold | pKd (LAP2, Q96RT1; [2]): below the threshold | pKd (LIN7A, O14910; [2]): below the threshold | pKd (LRRC7, Q96NW7; [2]): below the threshold | pKd (MAST2, Q6P0Q8; [2]): 4.21 | pKd (MPP7, Q5T2T1; [2]): below the threshold | pKd (NHERF3_1, Q5T2W1; [2]): below the threshold | pKd (NHERF3_4, Q5T2W1; [2]): below the threshold | pKd (PARD3_3, Q8TEW0; [2]): below the threshold | pKd (PCLO, Q9Y6V0; [2]): below the threshold | pKd (PDZRN3_1, Q9UPQ7; [2]): below the threshold | pKd (PICK1, Q9NRD5; [2]): below the threshold | pKd (RADIL, Q96JH8; [2]): 3.99 | pKd (RHPN1, Q8TCX5; [2]): 4.38
B3: PDLIM7, Q9NR12;Q9NR12-1 (peptide)
chain: LCKSHAFSHV
